# Data reported in patent US20150152192A1 (SAMSUNG ELECTRONICS, published 2015).
# Changes are numbered by the printed parent chain.
# T1: Ang2 with P452 mutated with alanine, tagged with FLAG (human, UniProt O15123 19-496, limits assumed)
# T1 sequence: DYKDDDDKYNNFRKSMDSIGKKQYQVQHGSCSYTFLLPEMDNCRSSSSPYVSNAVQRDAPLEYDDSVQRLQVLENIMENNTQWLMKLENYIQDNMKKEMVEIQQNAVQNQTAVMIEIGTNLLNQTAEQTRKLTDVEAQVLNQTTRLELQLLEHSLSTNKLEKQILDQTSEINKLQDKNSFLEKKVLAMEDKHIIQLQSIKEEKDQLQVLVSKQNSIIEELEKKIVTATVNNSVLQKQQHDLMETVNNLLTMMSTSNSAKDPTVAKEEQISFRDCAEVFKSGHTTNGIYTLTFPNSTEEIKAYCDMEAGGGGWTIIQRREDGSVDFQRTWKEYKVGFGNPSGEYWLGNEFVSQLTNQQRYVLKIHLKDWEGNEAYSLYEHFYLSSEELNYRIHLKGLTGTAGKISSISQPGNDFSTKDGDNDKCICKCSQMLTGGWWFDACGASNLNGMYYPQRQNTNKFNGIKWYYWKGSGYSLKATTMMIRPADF
# T2: Ang2 with Y460 mutated with alanine, tagged with FLAG (human, UniProt O15123 19-496, limits assumed)
# T2 sequence: T1 sequence with A442P, Y450A
# T3: Ang2 with K468 mutated with alanine, tagged with FLAG (human, UniProt O15123 19-496, limits assumed)
# T3 sequence: T1 sequence with A442P, K458A
# T4: Ang2 with F469 mutated with alanine, tagged with FLAG (human, UniProt O15123 19-496, limits assumed)
# T4 sequence: T1 sequence with A442P, F459A
# B1: SAIT-ANG-2-AB-2-E6 (scFv form) (scFv, V domains shown)
# VH: EVQLLESGGGLVQTGGSLRLSCAASGFTFSDYAMSWVRQAPGKGLEWVSAIYPDSGNKYYADSVKGRFTISRDNSKNTLYLQMNSLRAEDTAVYYCARHSSDPKVKSGYYDDGMDVWGQGTLVAVSS
# VL: QSVLTQPPSASGTPGQRVTISCSGSSSNIGNNAVNWYQQLPGTAPKLLIYADSNRPSGVPDRFSGSKSGTSASLAISGLRSEDEADYYCGSWDYSLSGYVFGGGTKLTVLG
# notes: scFv from a phage display library, partly purified from E. coli periplasm on Ni-NTA and detected with anti-HA
# B2: SAIT-ANG-2-AB-4-C11 (scFv form) (scFv, V domains shown)
# VH: EVQLLESGGGLVQPGGSLRLSCAASGFTFSDYAMSWVRQAPGKGLEWVSSIYPDDGNTYYADSVKGRFTISRDNSKNTLYLQMNSLRAEDTAVYYCARHTSHHTSIDGYYYYGMDGWGQGTLVTVSS
# VL: B1 VL with S23T, A33D, N35S, A51S, N54K
# notes: scFv from a phage display library
# B3: SAIT-ANG-2-AB-3-D3 (scFv form) (scFv, V domains shown)
# VH: EVQLLESGGGLVQPGGSLRLSCAASGFTFSDYDMSWVRQAPGKGLEWVSGISSDDGNTYYADSVKGRFTISRDNSKNTLYLQMNSLRAEDTAVYYCARPTIDKYTLRGYYSYGMDVWGQGTLVTVSS
# VL: B1 VL with S23T, N31S, A33Y, N35S, A51S, S53N, N54K, S91T, Y94D, S97N
# notes: as for B2
# B4: SAIT-ANG-2-AB-7-C9 (scFv form) (scFv, V domains shown)
# VH: EVQLLESGGGLVQPGGSLRLSCAASGFTFSNYAMSWVRQAPGKGLEWVSAISSGGGNIYYADSVKGRFTISRDNSKNTLYLQMNSLRAEDTAVYYCAKSGIQPSPPSMSSAYAMDVWGQGTLVTVSS
# VL: B1 VL with A33D, N35Y, D52N, N54H, S91T
# notes: as for B2
# B5: SAIT-ANG-2-AB-4-F11 (scFv form) (scFv, V domains shown)
# VH: EVQLLESGGGLVQTGGSLRLSCAASGFTFSDYAMSWVRQAPGKGLEWVSSIYPDDGNTYYADSVKGRFTISRDNSKNTLYLQMNSLRAEDTAVYYCAKHPVRLNLHPMYYYYGMDVWGQGTLVTVSS
# VL: B1 VL with S23T, N35S, A51S, N54Q, G90A, S91T, G98A
# notes: as for B2
# B6: SAIT-ANG-2-AB-8-A5 (scFv form) (scFv, V domains shown)
# VH: EVQLLESGGGLVQPGGSLRLSCAASGFTFSDYYMSWVRQAPGKGLEWVSGIYPSGGSTYYADSVKGRFTISRDNSKNTLYLQMNSLRAEDTAVYYCARDPSTLTYAGFDYWGQGTLVTVSS
# VL: B1 VL with A33Y, N35T, N54H, G90A, S91T
# notes: as for B2
# B7: SAIT-ANG-2-AB-4-F5 (scFv form) (scFv, V domains shown)
# VH: EVQLLESGGGLVQPGGSLRLSCAASGFTFSDYDMSWVRQAPGKGLEWVSSISHGDSNKYYADSVKGRFTISRDNSKNTLYLQMNSLRAEDTAVYYCAKSSGIQESPPTYYYYGMDVWGQGTLVTVSS
# VL: B1 VL with N31S
# notes: as for B2
# Target: T1, Ang2 with P452 mutated with alanine, …
# Test: ELISA, scFv coated, 250 ng FLAG-tagged Ang2 mutant, anti-FLAG-HRP
# Experimental: (§1) A 96-well MaxiSorp™ flat-bottom plate (Nunc) was coated with 50 μl of the anti-Ang2 scFv selected above. After that, the plate was washed five times with 0.05% (v/v) Tween-20-containing PBS and then blocked with 1% (v/v) BSA-containing PBS at a room temperature for 2 hours. […] Thereafter, the plate was washed five times with 0.05% Tween-20-containing PBS and then, an HRP-conjugated anti-FLAG antibody (SIGMA) diluted in 1% (v/v) BSA-containing PBS at 1:5,000 ratio (v/v) was added in the amount of 50 μl to each well to react at a room temperature for 1 hour, followed by washing five times with 0.1% (v/v) Tween-20-containing PBS.
# (§2) Finally, 100 μl of TMB substrate (cell signal) was added to each well of the plate to induce color development and then, the reaction was ceased by the addition of 50 μl of 5N H₂SO₄ solution and OD450 values were measured on a plate reader (Molecular Devices).
row,Binder,Relative binding (%) with Mutant Ang2 compared to the binding with native Ang2
1,B1,24%
2,B2,70%
3,B3,97.3%
4,B4,85%
5,B5,91.6%
6,B6,86.5%
7,B7,15%

# Target: T2, Ang2 with Y460 mutated with alanine, …
# Test: as above
# Experimental: as §1, §2
row,Binder,Relative binding (%) with Mutant Ang2 compared to the binding with native Ang2
1,B1,40%
2,B2,74.3%
3,B3,95.1%
4,B4,78.1%
5,B5,96.1%
6,B6,91.6%
7,B7,21.8%

# Target: T3, Ang2 with K468 mutated with alanine, …
# Test: as above
# Experimental: as §1, §2
row,Binder,Relative binding (%) with Mutant Ang2 compared to the binding with native Ang2
1,B1,94%
2,B2,94.8%
3,B3,95.9%
4,B4,97.3%
5,B5,102%
6,B6,101%
7,B7,87.4%

# Target: T4, Ang2 with F469 mutated with alanine, …
# Test: as above
# Experimental: as §1, §2
row,Binder,Relative binding (%) with Mutant Ang2 compared to the binding with native Ang2
1,B1,112%
2,B2,102%
3,B3,96.4%
4,B4,89.4%
5,B5,105%
6,B6,102%
7,B7,259%
